In paper PMC12268258:
Read-outs that look alike come from different tables or passages of the source.

Assays:
Experiment in all cases: BLI
HB125scFv-2 D33H [1] = biological target: HB125scFv-2 D33H
HB125scFv-2 D33H/E56H [2] = biological target: HB125scFv-2 D33H/E56H
HB125scFv-2 E56H [3] = biological target: HB125scFv-2 E56H
HB125scFv-2 Y242H [4] = biological target: HB125scFv-2 Y242H
HB125scFv-2 N54H [5] = biological target: HB125scFv-2 N54H
HB125scFv-2 T32H [6] = biological target: HB125scFv-2 T32H
HB125scFv-2 D33H [7] = biological target: HB125scFv-2 D33H; remark: listed apart in the source
HB125scFv-2 D33H/E56H [8] = biological target: HB125scFv-2 D33H/E56H; remark: listed apart in the source
HB125scFv-2 E56H [9] = biological target: HB125scFv-2 E56H; remark: listed apart in the source
HB125scFv-2 Y242H [10] = biological target: HB125scFv-2 Y242H; remark: listed apart in the source
HB125scFv-2 N54H [11] = biological target: HB125scFv-2 N54H; remark: listed apart in the source
HB125scFv-2 T32H [12] = biological target: HB125scFv-2 T32H; remark: listed apart in the source
HB125scFv-2 T32H [13] = biological target: HB125scFv-2 T32H; remark: listed apart in the source

## human insulin (from UniProt P01308 90-110; P01308 25-54) (natural protein)
HB125scFv-2 D33H [1]
  Kd: 0.0517 µM
  koff: 0.00154 s⁻¹
  kon: 27800 M⁻¹ s⁻¹
HB125scFv-2 D33H/E56H [2]
  Kd: 0.426 µM
  koff: 0.0073 s⁻¹
  kon: 19100 M⁻¹ s⁻¹
HB125scFv-2 E56H [3]
  Kd: 0.548 µM
  koff: 0.00577 s⁻¹
  kon: 12700 M⁻¹ s⁻¹
HB125scFv-2 Y242H [4]
  Kd: 1.48 µM
  koff: 0.012 s⁻¹
  kon: 8040 M⁻¹ s⁻¹
HB125scFv-2 N54H [5]
  Kd: 0.206 µM
  koff: 0.00286 s⁻¹
  kon: 15700 M⁻¹ s⁻¹
HB125scFv-2 T32H [6]
  Kd: 0.145 µM
  koff: 0.00351 s⁻¹
  kon: 42900 M⁻¹ s⁻¹
  percent change of wavelength shift, association 0.5 μM → 1 μM: 57%
  percent change of wavelength shift, association 1 μM → 0.5 μM: 23%
  percent change of wavelength shift, association 1 μM → 2 μM: 49%
  percent change of wavelength shift, association 2 μM → 1 μM: 21%
  percent change of wavelength shift, average association: 37%
  percent change of wavelength shift, average dissociation: -21%
  percent change of wavelength shift, dissociation 0.5 μM → 0 μM (first): -22%
  percent change of wavelength shift, dissociation 0.5 μM → 0 μM (second): -17%
  percent change of wavelength shift, dissociation 1 μM → 0 μM (first): -23%
  percent change of wavelength shift, dissociation 1 μM → 0 μM (second): -22%
  percent change of wavelength shift, dissociation 2 μM → 0 μM: -20%
HB125scFv-2 D33H [7]
  Kd: 0.036 µM
  koff: 0.00176 s⁻¹
  kon: 60500 M⁻¹ s⁻¹
HB125scFv-2 D33H/E56H [8]
  Kd: 0.25 µM
  koff: 0.00557 s⁻¹
  kon: 23700 M⁻¹ s⁻¹
HB125scFv-2 E56H [9]
  Kd: 0.16 µM
  koff: 0.0058 s⁻¹
  kon: 43400 M⁻¹ s⁻¹
HB125scFv-2 Y242H [10]
  Kd: 0.478 µM
  koff: 0.00854 s⁻¹
  kon: 18800 M⁻¹ s⁻¹
HB125scFv-2 N54H [11]
  Kd: 0.165 µM
  koff: 0.00341 s⁻¹
  kon: 26000 M⁻¹ s⁻¹
HB125scFv-2 T32H [12]
  Kd: 0.0174 µM
  koff: 0.00166 s⁻¹
  kon: 89700 M⁻¹ s⁻¹
HB125scFv-2 T32H [13]
  percent change of wavelength shift, association 0.5 μM → 1 μM: 31%
  percent change of wavelength shift, association 1 μM → 0.5 μM: 15%
  percent change of wavelength shift, association 1 μM → 2 μM: 39%
  percent change of wavelength shift, association 2 μM → 1 μM: 20%
  percent change of wavelength shift, average association: 26%
  percent change of wavelength shift, average dissociation: -17%
  percent change of wavelength shift, dissociation 0.5 μM → 0 μM (first): -18%
  percent change of wavelength shift, dissociation 0.5 μM → 0 μM (second): -11%
  percent change of wavelength shift, dissociation 1 μM → 0 μM (first): -15%
  percent change of wavelength shift, dissociation 1 μM → 0 μM (second): -18%
  percent change of wavelength shift, dissociation 2 μM → 0 μM: -21%
